The data set has as its system MS2 coat protein. As to the kind of experiment: apparent KD of MS2 coat protein; designed switch direction (-1 OFF switch, 1 ON switch): 1; higher = weaker reporter binding. A digest of the protocol:
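Apparent KD, taken as the median over clusters for each design, was obtained by curve-fitting normalised cluster fluorescence. Designed RNA switches had been transcribed on Illumina chips by stalled E. coli RNA polymerase and titrated with SNAP-549-labelled MS2 coat protein, doubling from 0.7 or 1.5 nM to 3 µM.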

The mark [1] stands for this setting: input ligand: microRNA oligo, concentration not stated.
Where [2] appears, read: Eterna round: R95, input ligand: microRNA oligo, concentration not stated.
Where [3] appears, read: Eterna round: R95, input ligand: FMN 200 uM.
Setting [4] is: Eterna round: R95, input ligand: none.

In the case of “GGUAGGUUACUACCAAACUACAUGAGGAUCACCCAUGUGUGGGAGGAUAUGGUACCUAUUUGGUACCAGAAGGUCCAAUUAAUU [Fiskers NG3ss - 6] (Eterna round: R96, puzzle: Same State NG 3)”, the “apparent KD of MS2 coat protein” value is, setting by setting: (input ligand: FMN 200 uM) 108 nM; under setting [1], 106 nM; (input ligand: none) 124 nM.

For the sequence “GGUAGGUUACUACCAGACAUGAGGAUCACCCAUGUAAGUGGGAAGGAUAUGGUACCGUUUCGGUACCAGAAGGUCCUAUGUAAG [JL SSNG3 1.45] (Eterna round: R96, puzzle: Same State NG 3)”, the “apparent KD of MS2 coat protein” value was 269 nM (input ligand: FMN 200 uM), 88.7 nM under setting [1] and 936 nM (input ligand: none).

Take “GGUAUACAUGAGGAUCACCCAUGUCGUAUGACAUGAGGAUAUGUACAGACUUCGGUCUGUACAGAAGGCGUGUGUC [SS1 - 1011 Omei Mod 6] (puzzle: Same State 1)”: the “apparent KD of MS2 coat protein” value under setting [2] worked out at 307 nM.

With “GGUAUCAGCACAGGAUAUGCUAUCCUUUGGGUAGCAGAAGGGUGGACAUGAGGAUCACCCAUGUGGGUGCCAGGGCGUGAGCCC [JL SSNG1 1.86] (Eterna round: R96, puzzle: Same State NG 1)”, the “apparent KD of MS2 coat protein” value turned out to be 426 nM (input ligand: FMN 200 uM), 75.9 nM under setting [1] and 323 nM (input ligand: none).

Consider “GGUAUCAUCACAGGAUAUGCUAUCCUUUGGGUAGCAGAAGGGUGGAACAUGAGGAUCACCCAUGUGGUGCCAGGGCGUGAGCCC [JL SSNG1 1.89] (Eterna round: R96, puzzle: Same State NG 1)”, for which the “apparent KD of MS2 coat protein” value reads like this: (input ligand: FMN 200 uM) 177 nM; under setting [1], 583 nM; (input ligand: none) 1880 nM.

Take “GGUAUGGACACAGGAUAUGCUAUCCUUUGGGUAGCAGAAGGGUGAACAUGAGGAUCACCCAUGUACGUGCCAGGGCGUGAGCCC [JL SSNG1 1.78] (Eterna round: R96, puzzle: Same State NG 1)”: the “apparent KD of MS2 coat protein” value was 913 nM (input ligand: FMN 200 uM), 278 nM under setting [1] and 1620 nM (input ligand: none).

For “GGUAUUAACACAGGAUAUGCUUACGAAACGUAAGCAGAAGGGUGGACAUGAGGAUCACCCAUGUUUGUACCAGGGCGUGAGCCC [JL SSNG1 1.71] (Eterna round: R96, puzzle: Same State NG 1)”, the “apparent KD of MS2 coat protein” value runs as follows: (input ligand: FMN 200 uM) 68.5 nM; under setting [1], 271 nM; (input ligand: none) 652 nM.

In the case of “GGUCCAGCCUGAGCUGGACAAAAGCAUGUACAUGAGGAUCACCCAUGUUCAUGUACAAGCUUUUUGCUCGUCUUAUA [salish99_208a_r3_045] (puzzle: Sensor for hsa-mir-208a)”, the “apparent KD of MS2 coat protein” value reads like this: under setting [3], 542 nM; under setting [2], 15.4 nM; under setting [4], 696 nM.

“GGUCCAGCCUGAGCUGGACAAAAGCAUGUACAUGAGGAUCACCCAUGUUCAUGUACAAGCUUUUUGCUCGUCUUAUG [salish99_208a_r3_053] (puzzle: Sensor for hsa-mir-208a)”: the “apparent KD of MS2 coat protein” value under setting [3] turned out to be 693 nM, the “apparent KD of MS2 coat protein” value under setting [2] turned out to be 18.1 nM and the “apparent KD of MS2 coat protein” value under setting [4] was 785 nM.

For “GGUCCAGCCUGAGCUGGACUAUAGUAUGUACAUGAGGAUCACCCAUGUCAUGUAUAAGUAUGUUGUUUGUCUUGAAA [Sensorship 4 - Jieux - Sensor for hsa-mir-208a] (puzzle: Sensor for hsa-mir-208a)”, the “apparent KD of MS2 coat protein” value is, setting by setting: under setting [3], 23.6 nM; under setting [2], 20.1 nM; under setting [4], 24.2 nM.

Take “GGUCCAUCAUGAGGAUAUGGCACCUUAUUGGUGCCAGAAGGCAUGUCUAUAGACAUGAGGAUCACCCAUGUAAUAAAUUGGACC [Eli NG1ss - 93] (Eterna round: R96, puzzle: Same State NG 1)”: the “apparent KD of MS2 coat protein” value by setting is: (input ligand: FMN 200 uM) 30.2 nM; under setting [1], 344 nM; (input ligand: none) 831 nM.

Consider “GGUCCAUCAUGAGGAUAUGGCACCUUAUUGGUGCCAGAAGGCAUGUCUAUUAGACAUGAGGAUCACCCAUGUAUAAAUUGGACC [Eli NG1ss - 91] (Eterna round: R96, puzzle: Same State NG 1)”, for which the “apparent KD of MS2 coat protein” value by setting is: (input ligand: FMN 200 uM) 108 nM; under setting [1], 192 nM; (input ligand: none) 1130 nM.

Consider “GGUCGGACCUACAUGAGGAUCACCCAUGUUCCGGAAACGGCAUAGGAUAUCUGUCCGAAAAGGUCAGAGAAGGGUGAACCGACC [Fiskers NG3ss - 74] (Eterna round: R96, puzzle: Same State NG 3)”, for which the “apparent KD of MS2 coat protein” value (input ligand: FMN 200 uM) was found to be 145 nM, the “apparent KD of MS2 coat protein” value under setting [1] amounted to 160 nM and the “apparent KD of MS2 coat protein” value (input ligand: none) was found to be 162 nM.

With “GGUCGGACUCACAUGAGGAUCACCCAUGUUGCGGAAACGCGGCAGGAUAUCUGUCCGAAAAGGUCAGAGAAGGGUCAACCGACC [Fiskers NG3ss - 62] (Eterna round: R96, puzzle: Same State NG 3)”, the “apparent KD of MS2 coat protein” value came to 644 nM (input ligand: FMN 200 uM), 141 nM under setting [1] and 199 nM (input ligand: none).

Regarding “GGUGAGAGAGUCAAGGAUAUUAAAGGAGAGACAUGAGGAUCACCCAUGUAAGAGAGAGAGGAGAGUGAGAAGGUGAAGAGAGUGG [Altered State 2-25 - Jieux - Same State 2] (puzzle: Same State 2)”, the “apparent KD of MS2 coat protein” value runs as follows: under setting [3], 30.4 nM; under setting [2], 25 nM; under setting [4], 60.6 nM.

For “GGUGCCAAAUAAGCCUACAUGAGGAUCACCCAUGUAUGUAGGCAGGAUAUCGUUUGCAAAGCAAACGAGAAGGGCUGAGGCACC [Mat - Same State NG 3 - JL Mod - D53] (Eterna round: R96, puzzle: Same State NG 3)”, the “apparent KD of MS2 coat protein” value came out at 26.1 nM (input ligand: FMN 200 uM), 42.7 nM under setting [1] and 81 nM (input ligand: none).

Take “GGUGCGAAAUAAGCCUACAUGAGGAUCACCCAUGUAUGUAGGCAGGAUAUCGUUUGCAAAGCAAACGAGAAGGGCUGACGCACC [Mat - Same State NG 3 - JL Mod - D50] (Eterna round: R96, puzzle: Same State NG 3)”: the “apparent KD of MS2 coat protein” value runs as follows: (input ligand: FMN 200 uM) 31.1 nM; under setting [1], 52.6 nM; (input ligand: none) 94.5 nM.

“GGUGCGAAUAAAGCCUACAUGAGGAUCACCCAUGUAUGUAGGCAGGAUAUCGUUUGCAAAGCAAACGAGAAGGGCUGUCGCACC [Mat - Same State NG 3 - JL Mod - D46] (Eterna round: R96, puzzle: Same State NG 3)”: the “apparent KD of MS2 coat protein” value was 29.9 nM (input ligand: FMN 200 uM), 55.2 nM under setting [1] and 100 nM (input ligand: none).

For “GGUGGGUUACUACCCACACAUGAGGAUCACCCAUGUAUUGGGAAGGAUAUGGUGCCUGUGUGGUACCAGAAGGUCCUGGAGGUG [SS-NG3-LRO20] (Eterna round: R96, puzzle: Same State NG 3)”, the “apparent KD of MS2 coat protein” value is, setting by setting: (input ligand: FMN 200 uM) 1350 nM; under setting [1], 237 nM; (input ligand: none) 1590 nM.

On to “GUACAGAUCACAGGAUAUCACGUCGAAUAGACGUGAGAAGGGUGAUCACACAUGAAUAUUAAUACAUGAGGAUCACCCAUGUAC [SSNG1/16-A1] (Eterna round: R96, puzzle: Same State NG 1)”, for which the “apparent KD of MS2 coat protein” value reads like this: (input ligand: FMN 200 uM) 71 nM; under setting [1], 14.1 nM; (input ligand: none) 20.4 nM.
